In the RNAGym collection of RNA variant scans (doi:10.1021/acssynbio.7b00057):

B1: Pistol ribozyme (parent)
chain: GGGUCGUUGUUCCAUAAUCGCGUGGAUAUGGCACGCAAGUUUCUACCGGGCACCGUAAAUGUCCGACUGGAGCCGUUCGGGCGGCUAUAAACAGACCUCAGGCCCGAAGCGUGGCGGCACCUGCCGCCGGUGGUAAAAAAGAUCGGAAGAGCACACGUCU

Variants of: B1
Assay: aptazyme ON/OFF ratio, guanine; higher = stronger switching; co-transcriptional cleavage with and without guanine

Variant	aptazyme ON/OFF ratio
U7C U8A G9U U10C U11A C12A C13U	1.15
U7A G9C U10G U11C C12A C13A	1.05
U10C U11A C13A	1.25
U7C U10A U11C C12G	1.25
U7G U8C G9C C12U C13A	1.1
U7C U8C G9U U11G C12A C13U	1.14
U7A U8C U11A C12U C13A	1.15
U7A U8A G9U U11G C12U C13A	1.28
U7G G9U U10G C12A C13A	1.12
G9A U10G U11A C12U	1.04
U8A G9C U10C U11C C12G C13U	1.04
U8A U10G U11G C12U C13A	1.15
G9U U10G U11A C13A	1.13
U7G U8G G9U U10A U11A C12A C13G	1.13
U7G U8A G9U U10G U11G C12U	1.15
U7C U10G C13U	1.39
U7C G9A U11A C13G	1.09
U7C U8C G9C U11C C12U	1.32
U7A G9A U10A C12A C13U	1.29
U7C U8G G9A U10G U11A C12G C13G	1.24
U7C U8A G9A U10G U11C C12U C13A	1.15
U7G U8C G9C U10G U11A C12U	1.04
U7C U8C G9A U10G U11C C13G	1.01
U8A G9A U10G U11G C12U C13G	1.26

Variant	aptazyme ON/OFF ratio
U7G U8G U10G U11A C12G C13G	1.44
U7G U8C G9A U10A U11A C12G C13U	1.15
U8A G9A C13A	1.19
U7G G9U U10G U11C C12G C13U	1.36
U7C U8A G9A U10C C12G C13G	1.1
U8C G9A C12G	1.26
U7A G9A U10G U11G C12G C13U	1.16
U7G U8A G9A U10G U11A C12A C13G	1.16
G9C U10C U11G C13U	1.08
G9U U10G U11C C13A	1.26
U7A U8G U10C U11G C12U C13U	1.31
U7A U8C G9U U10G C12U	1.17
U7G U8C U10C U11G C12U C13U	1.31
U7C U8C G9C U10G U11A C12G C13U	1.08
U7C G9U U10G U11A C12G	1.27
U8C G9C C12A C13G	1.1
U7G U8G U10G U11G C12A C13U	1.33
U8C G9U U10A U11C C12U C13G	1.09
U7C U8C G9A U10A C12U C13U	1.13
U7A U8A G9A U10C U11G C12A	1.12
U7A U8A U11A C12G C13A	1.17
G9A U10C U11C C12G C13U	1.14
U7A U8G G9U U11G C12A C13A	1.26
U7G U8C G9A U10A U11C C12A C13U	1.13

Variant	aptazyme ON/OFF ratio
U7C U8A G9A U10G C12G C13U	1.27
U7C U11C C12U	1.5
U8A G9C U10G U11G C12G C13G	1.23
U8G G9A U10G U11A	1.05
U8G G9A U10A U11A C13A	1.12
U8G G9U U10G U11A C12U	1.03
U7G G9A U10C C12G C13U	1.27
U8A G9C U11C C12G C13A	1.07
U7C U8C G9A C12U C13G	1.27
U7C U8G G9U U11C C12A C13A	1.31
U7C G9U C12U C13A	1.12
U8A G9A U10C C12A C13G	1.13
U7C U8C G9A U10A U11G C12U	1.35
U7A G9U U10G C12A C13A	1.16
U7C U8G G9U U10A U11G C12G C13G	1.18
U7A U10G C12G C13A	1.08
U7A U8A G9U C12U	1.32
U10A U11G C12U C13U	1.27
G9A U10C C12A C13A	1.46
U7A U8C G9A U10C U11A C12G C13A	1.1
U7G U8G G9C U10G U11A C12A C13U	1.11
U7A U8G G9A U10C U11C C13U	1.03
U8C G9U U10G U11C	1.13
U7C G9A U10A U11A C13A	1.08

Variant	aptazyme ON/OFF ratio
U7C U8G G9A U10G U11G C12A C13G	1.24
U7G U8G G9A U10A U11C C12G	1.23
U8A G9A U10A U11A C12G C13A	1.29
U7C U8C G9U U10G U11G C12U C13G	1.09
U7C G9C U10G	1.08
U7C U11C C13A	1.15
U7C U8G U11A C12G C13A	1.11
U7G U8A U11C	2.05
U7C U8C G9A U10G U11G C12U	1.25
U7C U8C G9U U11C C12G C13G	1.12
U8G G9A U10A C12G C13G	1.3
U7A U8C G9C U11G C12U C13A	1.17
U7C G9A U10A U11A C12G C13A	1.17
U8A U10A U11C	1
U7G U8G G9A U10A U11A C12U C13G	1.13
U7G C12G C13U	1.17
U7C U8C G9C U10A U11A C12A C13G	1.03
U7G U8A G9U U10C C12A C13U	1.15
U8A G9A C12A C13G	1.1
U7A U8G G9C U10G U11G C12A	1.36
G9A U10C U11C C13G	1.07
U8A U10C U11C C12A C13G	1.14
U7G G9A U10A C13U	1.28
U7C U8A G9C U10G U11C C12G	1.18

Variant	aptazyme ON/OFF ratio
U8G U10G C12U C13G	1.18
U10G U11G C12U	1.38
U7C G9A U10G U11C C12U C13A	1.2
U7C G9A U10G U11C C12U C13G	1.09
U7G U8G G9C U10C U11G C12U C13U	1.22
U7C G9C U10C U11A C12G	0.941
U7C U8C G9A C13A	1.24
U7A G9U U10C U11A C12U C13A	1.23
U7C G9C U11C C12G C13G	1.04
U7G G9A U10A U11C C12A C13U	1.21
U7C G9U U10C U11A C12A C13G	1.04
U7C U8G U10G U11C	1.09
U7A G9C U10C C12U C13G	1.01
U7G U8C U10G U11C C12G C13G	1.18
U7C U10A U11C C12A C13U	1.1
U7C U8G G9C U10C U11G C13G	1.11
U7C U8C U10G U11A C12A	1.3
U7G U10C C12U C13U	1.07
U8A U10C U11G C12U C13A	1.26
U7G U8A G9U U10G U11G C12G C13U	1.05
U7G U8C G9C U10A U11C C12A C13G	1.19
U7A G9A U11C C12U	1.17
U7C U8C G9U U10G U11G C12G C13A	1.1
U7G U8C U10A U11G C12A C13U	1.19

Variant	aptazyme ON/OFF ratio
U7C U8C G9C U10C U11G C13A	1.33
U7A G9U C12A	0.896
U7A U8A G9U U10A U11C C12A C13U	1.14
U11G C12G	1.34
U8G G9U U10G U11C C12A C13U	1.03
U8A G9A U11C	1.05
U8G G9A U10C U11G C13U	1.09
U7C U8A U11C C12G C13A	1.3
U7G G9U U10G U11A C13A	1.15
U7G U8C G9A U10C C12G C13U	1.28
U7C U8A G9A U10C U11A C12U	1.28
G9U U11G C12A C13A	1.31
U7G U8C G9U U10A U11G C12G C13U	1.1
U7A U8A G9C U10C U11G C12G C13G	1.08
U7C U8C G9U U10G C12A C13U	1.1
U7G U8G G9U U10A U11A C12G C13G	1.11
U7A U8G G9A U10G U11C C12G C13G	1.23
U7C U8G G9C U10C U11G C12G C13A	1.12
U7C U8A U10G U11G C12G C13U	1.25
U7G U10G C12G	1.09
U7C U8C G9C U10G U11G C12A	1.11
U7C U8A G9U U10G U11A C12U	1.06
U7G U8A G9U U10A C12G	1.06
G9A C12A C13G	1.12

Variant	aptazyme ON/OFF ratio
U8C U10C U11G	1.42
U8G U11C C12U C13U	1.3
U8A U10A U11G C12G	1.36
U7A G9A U10C U11A C12U C13G	1.23
U7A U8C G9A U10C U11G C12U C13U	1.41
U8C G9A U10C U11A C12A C13A	1.23
U8A G9A U10C U11C C12G C13G	1.13
U7C U8C G9A U10A U11C C13G	1.04
U7G U8A G9A U10C U11A C12A C13A	1.2
U8G G9U U10C U11A C13U	1.12
U7C U8A G9A U10A U11G C12A C13A	1.11
U7G U8C G9C U10G U11G C13U	1.06
U7C U8G G9U C12A C13U	1.37
U7A U8A G9A U10C U11C C12U C13G	1.03
U7G G9A U10G U11A C12U C13U	1.07
U7G G9U U11C C12U	2.32
U7G U8A G9U U11A C12U C13G	1.07
U8G G9U U10G C13U	1.04
U7G U8C G9A U10A C13U	1.83
U7C U8A G9C U10G U11A C12A C13A	1.17
U7G G9U U10A U11C C13U	1.18
U7G G9U U10A U11C C13G	1.12
U7C U8A G9U U10A U11C C12U C13A	1.14
